{"source": "paper PMC10786891", "about": "“Massively parallel profiling of RNA-targeting CRISPR-Cas13d”", "binders": {"B1": {"name": "target 1 insG 3' of 11,insG 3' of 1 (mixed)", "RNA 1": "CACCCGUGCAAAAAUGCAGGGGUCUAAAACUGAGCGGAUAACCUCUCUAUGG", "RNA 2": "GGGAAUGGAUCCACAUCUACGAAUUCGUACCAUAGAGAGGUGUAUCCGCUCAGCCGAGAUCGGAAGAGCACACGU"}, "B2": {"name": "target 1 U3A,U19C (mixed)", "RNA 1": "B1 RNA 1", "RNA 2": "GGGAAUGGAUCCACAUCUACGAAUUCGUACCACAGAGAGGUUAUCCGCACACCGAGAUCGGAAGAGCACACGU"}, "B3": {"name": "target 1 del1,del2 (mixed)", "RNA 1": "B1 RNA 1", "RNA 2": "GGGAAUGGAUCCACAUCUACGAAUUCGUACCAUAGAGAGGUUAUCCGCUCCGAGAUCGGAAGAGCACACGU"}, "B4": {"name": "target 1 insC 3' of 15,insA 3' of 3 (mixed)", "RNA 1": "B1 RNA 1", "RNA 2": "B1 RNA 2 with A38C, G39A, U41G, G42U, C51A, A52C, G53A"}, "B5": {"name": "target 1 insC 3' of 22,insC 3' of 22 (mixed)", "RNA 1": "B1 RNA 1", "RNA 2": "GGGAAUGGAUCCACAUCUACGAAUUCGUACCCCAUAGAGAGGUUAUCCGCUCACCGAGAUCGGAAGAGCACACGU"}, "B6": {"name": "target 1 insA 3' of 17,insA 3' of 17 (mixed)", "RNA 1": "B1 RNA 1", "RNA 2": "B5 RNA 2 with C32A, C33U, U35G, G37A"}, "B7": {"name": "target 1 insC 3' of 15,insU 3' of 2 (mixed)", "RNA 1": "B1 RNA 1", "RNA 2": "B1 RNA 2 with A38C, G39A, U41G, G42U, A52U, G53A"}, "B8": {"name": "target 1 insA 3' of 21,insU 3' of 5 (mixed)", "RNA 1": "B1 RNA 1", "RNA 2": "GGGAAUGGAUCCACAUCUACGAAUUCGUACCAAUAGAGAGGUUAUCCGUCUCACCGAGAUCGGAAGAGCACACGU"}, "B9": {"name": "target 1 insU 3' of 22,insU 3' of 6 (mixed)", "RNA 1": "B1 RNA 1", "RNA 2": "B8 RNA 2 with C31U, A32C, G48U, U49G"}, "B10": {"name": "target 1 insC 3' of 11,insU 3' of 6 (mixed)", "RNA 1": "B1 RNA 1", "RNA 2": "B1 RNA 2 with G42C, G48U, C49G, U50C, C51U, A52C, G53A"}, "B11": {"name": "target 1 insG 3' of 9,insA 3' of 7 (mixed)", "RNA 1": "B1 RNA 1", "RNA 2": "GGGAAUGGAUCCACAUCUACGAAUUCGUACCAUAGAGAGGUUAGUCACGCUCACCGAGAUCGGAAGAGCACACGU"}, "B12": {"name": "target 1 del11,del16 (mixed)", "RNA 1": "B1 RNA 1", "RNA 2": "GGGAAUGGAUCCACAUCUACGAAUUCGUACCAUAGGAGGUAUCCGCUCACCGAGAUCGGAAGAGCACACGU"}, "B13": {"name": "target 1 insC 3' of 15,insU 3' of 4 (mixed)", "RNA 1": "B1 RNA 1", "RNA 2": "B1 RNA 2 with A38C, G39A, U41G, G42U, C51U, A52C, G53A"}, "B14": {"name": "target 1 C7U,A16U (mixed)", "RNA 1": "B1 RNA 1", "RNA 2": "B2 RNA 2 with C33U, A36U, C45U, A49U"}, "B15": {"name": "target 1 insG 3' of 11,insU 3' of 1 (mixed)", "RNA 1": "B1 RNA 1", "RNA 2": "B1 RNA 2 with G53U"}, "B16": {"name": "target 1 insU 3' of 17,insC 3' of 1 (mixed)", "RNA 1": "B1 RNA 1", "RNA 2": "B1 RNA 2 with A36U, G37A, A38G, G39A, U41G, G42U, G53C"}, "B17": {"name": "target 1 U8G,G13U (mixed)", "RNA 1": "B1 RNA 1", "RNA 2": "B2 RNA 2 with C33U, G39U, U44G, A49U"}, "B18": {"name": "target 1 insA 3' of 19,insG 3' of 10 (mixed)", "RNA 1": "B1 RNA 1", "RNA 2": "B8 RNA 2 with A33U, U34A, A44G, U45A, C46U, G48C, U49G"}, "B19": {"name": "target 1 G17A,C21U (mixed)", "RNA 1": "B1 RNA 1", "RNA 2": "B2 RNA 2 with C31U, C33U, G35A, A49U"}, "B20": {"name": "target 1 del4,del9 (mixed)", "RNA 1": "B1 RNA 1", "RNA 2": "B3 RNA 2 with A43U, U44C, C46G, G47U, U49A"}, "B21": {"name": "target 1 insC 3' of 19,insG 3' of 19 (mixed)", "RNA 1": "B1 RNA 1", "RNA 2": "B5 RNA 2 with C32A, C33U, A34C, U35G"}, "B22": {"name": "target 1 insU 3' of 17,insA 3' of 2 (mixed)", "RNA 1": "B1 RNA 1", "RNA 2": "B1 RNA 2 with A36U, G37A, A38G, G39A, U41G, G42U, G53A"}, "B23": {"name": "target 1 C2U,A16U (mixed)", "RNA 1": "B1 RNA 1", "RNA 2": "B2 RNA 2 with C33U, A36U, A49U, C50U"}, "B24": {"name": "target 1 U8G,C22G (mixed)", "RNA 1": "B1 RNA 1", "RNA 2": "B2 RNA 2 with C30G, C33U, U44G, A49U"}, "B25": {"name": "target 1 insA 3' of 21,insC 3' of 12 (mixed)", "RNA 1": "B1 RNA 1", "RNA 2": "B8 RNA 2 with U42C, A44U, U45A, C46U, G48C, U49G"}, "B26": {"name": "target 1 insG 3' of 11,insC 3' of 11 (mixed)", "RNA 1": "B1 RNA 1", "RNA 2": "B11 RNA 2 with U42G, A43C, G44U, U45A, C46U, A47C"}, "B27": {"name": "target 1 C4G,C6A (mixed)", "RNA 1": "B1 RNA 1", "RNA 2": "B2 RNA 2 with C33U, C46A, C48G, A49U"}, "B28": {"name": "target 1 insC 3' of 15,insC 3' of 9 (mixed)", "RNA 1": "B1 RNA 1", "RNA 2": "B11 RNA 2 with A38C, G39A, U41G, A43U, G44A, U45C, C46U, A47C"}, "B29": {"name": "target 1 insG 3' of 14,insU 3' of 1 (mixed)", "RNA 1": "B1 RNA 1", "RNA 2": "B1 RNA 2 with U41G, G42U, G53U"}, "B30": {"name": "target 1 G13U,A16G (mixed)", "RNA 1": "B1 RNA 1", "RNA 2": "B2 RNA 2 with C33U, A36G, G39U, A49U"}, "B31": {"name": "target 1 A18U,A20G (mixed)", "RNA 1": "B1 RNA 1", "RNA 2": "B2 RNA 2 with A32G, C33U, A34U, A49U"}, "B32": {"name": "target 1 insG 3' of 21,insU 3' of 12 (mixed)", "RNA 1": "B1 RNA 1", "RNA 2": "B8 RNA 2 with A32G, A44U, U45A, C46U, G48C, U49G"}, "B33": {"name": "target 1 C7A,G12U (mixed)", "RNA 1": "B1 RNA 1", "RNA 2": "B2 RNA 2 with C33U, G40U, C45A, A49U"}}, "molecular_target": "T1, EsCas13d, nuclease-dead (Eubacterium siraeum, UniProt B0MS50, R295A;H300A;R849A;H854A)", "T1 sequence": "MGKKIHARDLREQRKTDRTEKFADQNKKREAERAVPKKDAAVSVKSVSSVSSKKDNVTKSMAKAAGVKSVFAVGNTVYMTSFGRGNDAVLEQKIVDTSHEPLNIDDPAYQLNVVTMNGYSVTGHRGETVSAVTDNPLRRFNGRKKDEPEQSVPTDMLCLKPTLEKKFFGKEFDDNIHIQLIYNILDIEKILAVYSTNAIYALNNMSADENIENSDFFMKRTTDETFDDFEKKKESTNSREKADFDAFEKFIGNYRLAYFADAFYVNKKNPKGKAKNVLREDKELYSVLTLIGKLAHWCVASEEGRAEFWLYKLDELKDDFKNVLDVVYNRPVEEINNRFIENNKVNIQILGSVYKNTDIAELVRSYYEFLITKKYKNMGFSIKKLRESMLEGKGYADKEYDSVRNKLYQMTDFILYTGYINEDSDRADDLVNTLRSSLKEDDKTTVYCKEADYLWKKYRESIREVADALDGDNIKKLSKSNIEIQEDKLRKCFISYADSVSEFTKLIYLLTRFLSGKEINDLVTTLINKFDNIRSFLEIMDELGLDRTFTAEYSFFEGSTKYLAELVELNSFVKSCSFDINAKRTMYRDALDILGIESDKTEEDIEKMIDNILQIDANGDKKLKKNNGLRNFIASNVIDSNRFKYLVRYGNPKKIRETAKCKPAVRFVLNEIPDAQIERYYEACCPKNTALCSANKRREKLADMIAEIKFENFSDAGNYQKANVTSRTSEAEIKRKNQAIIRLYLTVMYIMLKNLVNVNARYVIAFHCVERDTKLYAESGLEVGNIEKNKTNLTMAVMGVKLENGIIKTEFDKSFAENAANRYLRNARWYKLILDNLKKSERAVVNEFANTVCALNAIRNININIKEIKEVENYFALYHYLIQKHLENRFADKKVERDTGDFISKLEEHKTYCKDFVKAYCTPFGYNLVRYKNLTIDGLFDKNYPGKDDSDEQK", "experiment": "crRNA (strand 1, pre-loaded); Mg2+; 40 mM Tris-HCl pH 7.5, 150 mM NaCl, 6 mM MgCl2, 1 mM DTT, 0.1% Tween-20, 0.2 mg/ml BSA; 25 C; 10 min per concentration, then washed", "settings": "tags: His6-TwinStrep-SUMO cleaved; N-terminal SNAP kept (SNAP-Surface 488); label: 3' end held by stalled T7 RNA polymerase", "note": "Changes are numbered by the printed parent chain. Names and notes keep the numbering of the source."}
{"binder": "B1", "values": [{"measurement": "Kd", "result": "34 ± 4", "unit": "nM"}]}
{"binder": "B2", "values": [{"measurement": "Kd", "result": "24.2 ± 2.6", "unit": "nM"}]}
{"binder": "B3", "values": [{"measurement": "Kd", "result": "15.6 ± 0.9", "unit": "nM"}]}
{"binder": "B4", "values": [{"measurement": "Kd", "result": "13 ± 0.8", "unit": "nM"}]}
{"binder": "B5", "values": [{"measurement": "Kd", "result": "17.4 ± 0.7", "unit": "nM"}]}
{"binder": "B6", "values": [{"measurement": "Kd", "result": "10.8 ± 0.6", "unit": "nM"}]}
{"binder": "B7", "values": [{"measurement": "Kd", "result": "20.5 ± 1.8", "unit": "nM"}]}
{"binder": "B8", "values": [{"measurement": "Kd", "result": "30 ± 5", "unit": "nM"}]}
{"binder": "B9", "values": [{"measurement": "Kd", "result": "38 ± 7", "unit": "nM"}]}
{"binder": "B10", "values": [{"measurement": "Kd", "result": "69 ± 8", "unit": "nM"}]}
{"binder": "B11", "values": [{"measurement": "Kd", "result": "12.2 ± 0.6", "unit": "nM"}]}
{"binder": "B12", "values": [{"measurement": "Kd", "result": "68 ± 11", "unit": "nM"}]}
{"binder": "B13", "values": [{"measurement": "Kd", "result": "14.3 ± 0.6", "unit": "nM"}]}
{"binder": "B14", "values": [{"measurement": "Kd", "result": "46 ± 7", "unit": "nM"}]}
{"binder": "B15", "values": [{"measurement": "Kd", "result": "56 ± 10", "unit": "nM"}]}
{"binder": "B16", "values": [{"measurement": "Kd", "result": "18 ± 2.4", "unit": "nM"}]}
{"binder": "B17", "values": [{"measurement": "Kd", "result": "38 ± 8", "unit": "nM"}]}
{"binder": "B18", "values": [{"measurement": "Kd", "result": "68 ± 28", "unit": "nM"}]}
{"binder": "B19", "values": [{"measurement": "Kd", "result": "8.1 ± 0.5", "unit": "nM"}]}
{"binder": "B20", "values": [{"measurement": "Kd", "result": "78 ± 15", "unit": "nM"}]}
{"binder": "B21", "values": [{"measurement": "Kd", "result": "73 ± 6", "unit": "nM"}]}
{"binder": "B22", "values": [{"measurement": "Kd", "result": "17.6 ± 1.8", "unit": "nM"}]}
{"binder": "B23", "values": [{"measurement": "Kd", "result": "56 ± 11", "unit": "nM"}]}
{"binder": "B24", "values": [{"measurement": "Kd", "result": "43 ± 11", "unit": "nM"}]}
{"binder": "B25", "values": [{"measurement": "Kd", "result": "~44", "unit": "nM"}]}
{"binder": "B26", "values": [{"measurement": "Kd", "result": "18 ± 1.7", "unit": "nM"}]}
{"binder": "B27", "values": [{"measurement": "Kd", "result": "6.7 ± 0.4", "unit": "nM"}]}
{"binder": "B28", "values": [{"measurement": "Kd", "result": "20 ± 1.7", "unit": "nM"}]}
{"binder": "B29", "values": [{"measurement": "Kd", "result": "12.3 ± 1.2", "unit": "nM"}]}
{"binder": "B30", "values": [{"measurement": "Kd", "result": "100 ± 50", "unit": "nM"}]}
{"binder": "B31", "values": [{"measurement": "Kd", "result": "93 ± 30", "unit": "nM"}]}
{"binder": "B32", "values": [{"measurement": "Kd", "result": "64 ± 13", "unit": "nM"}]}
{"binder": "B33", "values": [{"measurement": "Kd", "result": "15.3 ± 1.5", "unit": "nM"}]}
